Assays:
[1] = biological target: γ2-GABAA subunit fused with a superecliptic pHluorin (SEP) tag (UniProt P18508)
[2] = biological target: γ2-GABAA subunit fused with a superecliptic pHluorin (SEP) tag (UniProt P18508); remark: listed apart in the source
[3] = biological target: γ2-GABAA subunit fused with a superecliptic pHluorin (SEP) tag (UniProt P18508); remark: listed apart in the source
[4] = biological target: γ2-GABAA receptor (endogenous) (rat (endogenous in hippocampal neurons)) (UniProt P18508)

How did the diffusion coefficient median of SEP-γ2-GABAARs at inhibitory synaptic sites with the disrupting peptide TATD5Ct (10 µM); control 1.81 10^−2 µm^2/s [1] turn out when “dopamine D5 receptor (endogenous) (from UniProt P25115 1-475)” was run?
The diffusion coefficient median of SEP-γ2-GABAARs at inhibitory synaptic sites with the disrupting peptide TATD5Ct (10 µM); control 1.81 10^−2 µm^2/s was 0.0578 µm^2/s.

What about the explored area of SEP-γ2-GABAARs at inhibitory synapses with the disrupting peptide TATD5Ct (10 µM); control 0.30 10^−2 [1] of the same substance?
The explored area of SEP-γ2-GABAARs at inhibitory synapses with the disrupting peptide TATD5Ct (10 µM); control 0.30 10^−2 was 0.0133 µm^2/s.

And the immobile fraction (D < 0.005 µm^2/s) of SEP-γ2-GABAARs at inhibitory synapses, single nanoparticle tracking, after the disrupting peptide TATD5Ct (10 µM, 10 min); control 33% [1]?
The immobile fraction (D < 0.005 µm^2/s) of SEP-γ2-GABAARs at inhibitory synapses, single nanoparticle tracking, after the disrupting peptide TATD5Ct (10 µM, 10 min); control 33% was 9%.

What about the diffusion coefficient median of SEP-γ2-GABAARs at excitatory synapses with the disrupting peptide TATD5Ct (10 µM); control 3.15 10^−2 µm^2/s; no change (p = 0.13) [2] of the same substance?
Its diffusion coefficient median of SEP-γ2-GABAARs at excitatory synapses with the disrupting peptide TATD5Ct (10 µM); control 3.15 10^−2 µm^2/s; no change (p = 0.13) is 0.0412 µm^2/s.

What about the explored area of SEP-γ2-GABAARs at excitatory synapses with the disrupting peptide TATD5Ct (10 µM); control 0.60 10^−2 µm^2; unchanged (p = 0.097) [2] of the same substance?
Its explored area of SEP-γ2-GABAARs at excitatory synapses with the disrupting peptide TATD5Ct (10 µM); control 0.60 10^−2 µm^2; unchanged (p = 0.097) is 0.0073 µm^2.

What about the immobile fraction of SEP-γ2-GABAARs at excitatory synapses with the disrupting peptide TATD5Ct (10 µM); no change [2] of the same substance?
Its immobile fraction of SEP-γ2-GABAARs at excitatory synapses with the disrupting peptide TATD5Ct (10 µM); no change is 20%.

What about the diffusion coefficient median of extrasynaptic SEP-γ2-GABAARs after incubation with the disrupting peptide TATD5Ct (10 µM); control 4.11 10^−2 µm^2/s [3] of the same substance?
The diffusion coefficient median of extrasynaptic SEP-γ2-GABAARs after incubation with the disrupting peptide TATD5Ct (10 µM); control 4.11 10^−2 µm^2/s was 0.075 µm^2/s.

And the explored area of extrasynaptic SEP-γ2-GABAARs with the disrupting peptide TATD5Ct (10 µM); control 1.24 10^−2 µm^2 [3]?
The explored area of extrasynaptic SEP-γ2-GABAARs with the disrupting peptide TATD5Ct (10 µM); control 1.24 10^−2 µm^2 was 0.0245 µm^2.

And the immobile fraction of extrasynaptic SEP-γ2-GABAARs with the disrupting peptide TATD5Ct (10 µM); control 25% [3]?
Its immobile fraction of extrasynaptic SEP-γ2-GABAARs with the disrupting peptide TATD5Ct (10 µM); control 25% is 17%.

What does the source list for “dopamine D5 receptor fused to the yellow fluorescent protein (YFP) (from UniProt P25115 1-475)”?
diffusion coefficient median of extrasynaptic D5Rs (D5R–YFP) after incubation with the disrupting peptide TATD5Ct (10 µM); control 7.42 10^−2 µm^2/s [4]: 0.103 µm^2/s; explored area of extrasynaptic D5Rs (D5R–YFP) with the disrupting peptide TATD5Ct (10 µM); control 2.37 10^−2 µm^2 [4]: 0.0345 µm^2; immobile fraction of extrasynaptic D5Rs (D5R–YFP, single nanoparticle tracking) with the disrupting peptide TATD5Ct (10 µM); not changed [4]: 15%

From publication PMC8125140
